B1: Protein STE5 (Saccharomyces cerevisiae), P32917 (parent)
chain: MMETPTDNIVSPFHNFGSSTQYSGTLSRTPNQIIELEKPSTLSPLSRGKKWTEKLARFQRSSAKKKRFSPSPISSSTFSFSPKSRVTSSNSSGNEDGNLMNTPSTVSTDYLPQHPHRTSSLPRPNSNLFHASNSNLSRANEPPRAENLSDNIPPKVAPFGYPIQRTSIKKSFLNASCTLCDEPISNRRKGEKIIELACGHLSHQECLIISFGTTSKADVRALFPFCTKCKKDTNKAVQCIPENDELKDILISDFLIHKIPDSELSITPQSRFPPYSPLLPPFGLSYTPVERQTIYSQAPSLNPNLILAAPPKERNQIPQKKSNYTFLHSPLGHRRIPSGANSILADTSVALSANDSISAVSNSVRAKDDETKTTLPLLRSYFIQILLNNFQEELQDWRIDGDYGLLRLVDKLMISKDGQRYIQCWCFLFEDAFVIAEVDNDVDVLEIRLKNLEVFTPIANLRMTTLEASVLKCTLNKQHCADLSDLYIVQNINSDESTTVQKWISGILNQDFVFNEDNITSTLPILPIIKNFSKDVGNGRHETSTFLGLINPNKVVEVGNVHDNDTVIIRRGFTLNSGECSRQSTVDSIQSVLTTISSILSLKREKPDNLAIILQIDFTKLKEEDSLIVVYNSLKALTIKFARLQFCFVDRNNYVLDYGSVLHKIDSLDSISNLKSKSSSTQFSPIWLKNTLYPENIHEHLGIVAVSNSNMEAKKSILFQDYRCFTSFGRRRPNELKIKVGYLNVDYSDKIDELVEASSWTFVLETLCYSFGLSFDEHDDDDEEDNDDSTDNELDNSSGSLSDAESTTTIHIDSPFDNENATANMVNDRNLLTEGEHSNIENLETVASSVQPALIPNIRFSLHSEEEGTNENENENDMPVLLLSDMDKGIDGITRRSSFSSLIESGNNNCPLHMDYI
partner: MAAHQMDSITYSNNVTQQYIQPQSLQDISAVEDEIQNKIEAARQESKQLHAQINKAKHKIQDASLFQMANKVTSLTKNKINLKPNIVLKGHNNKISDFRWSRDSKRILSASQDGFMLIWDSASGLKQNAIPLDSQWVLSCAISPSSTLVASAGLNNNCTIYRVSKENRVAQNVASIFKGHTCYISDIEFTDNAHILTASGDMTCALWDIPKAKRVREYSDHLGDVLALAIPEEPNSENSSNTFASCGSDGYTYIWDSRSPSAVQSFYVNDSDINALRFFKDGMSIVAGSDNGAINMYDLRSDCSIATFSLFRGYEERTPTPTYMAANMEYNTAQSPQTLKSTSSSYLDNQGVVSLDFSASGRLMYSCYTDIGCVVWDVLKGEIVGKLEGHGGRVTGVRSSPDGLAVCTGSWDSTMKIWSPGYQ

Variants of: B1
Conditions: with gbb_yeast STE4, P18851
With C177A;C180A the “effect of a mutation on the interaction” value was “disrupting interaction”.

Reference: IntAct's records for PubMed 9311911
